Results: patent US20250025506A1 (INNOVATIVE CELLULAR THERAPEUTICS, published 2025)

T1: UPK2 antigen on 293T cells (6600, Lenti-UPK2 antigen plasmid) (Homo sapiens (Human), UniProt O00526 85-184)
T1 construct: 293T cells transiently transfected with plasmid 6600 or infected with virus packaged from it; also called UPK2 target cells; 293T cells with UPK2 target
T1 sequence: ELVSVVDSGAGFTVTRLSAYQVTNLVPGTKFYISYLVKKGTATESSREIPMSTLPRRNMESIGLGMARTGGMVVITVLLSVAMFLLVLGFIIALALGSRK

B1: S7F9 recombinant anti-UPK2 monoclonal antibody (murine-human chimeric) (antibody, V domains shown)
VH: QVQLKQSGPGLVRPGASVTMSCKASGYTFTSNWMHWVKQRPGQGLDWIGMIDPSNSDTRLNQKFKDKATLNVDKSSNTAYMQLSSLTSDDSAVYYCMRGGGDYWGQGTTLTVSS
VL: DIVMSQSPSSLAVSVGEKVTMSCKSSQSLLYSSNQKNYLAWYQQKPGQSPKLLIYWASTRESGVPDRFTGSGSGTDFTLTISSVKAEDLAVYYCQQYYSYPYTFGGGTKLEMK
B2: S2B7 recombinant anti-UPK2 monoclonal antibody (murine-human chimeric) (antibody, V domains shown)
VH: EVQLQQSGAELMKPGTSVKMSCKAAGYTFTKYWIGWVKQRPGHGLEWIGDIYPGGGYTLFNEKFKGKATLTADTSSSTAYMQLSSLTSEDSAIYYCARGNYWGQGTTLTVSS
VL: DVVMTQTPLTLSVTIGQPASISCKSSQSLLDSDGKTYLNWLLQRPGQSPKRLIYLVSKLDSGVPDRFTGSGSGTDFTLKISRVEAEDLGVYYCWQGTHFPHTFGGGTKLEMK
B3: S3D10 recombinant anti-UPK2 monoclonal antibody (murine-human chimeric) (antibody, V domains shown)
VH: QVQLQQSGAELVRSGASVKLSCTDSGFNIKDYYMNWVKQRPEQGLEWIGWIDPENGVTQYDPKFQGKATVTADTFSNTAYLQLSSLTSEDTAVYYCNANYKYDWFGYWGQGTLVTVSA
VL: NIVMTQSPSSLSASLGERVSLTCRASQEISGYLSWLQQKPDGTIKRLIYAASTLDSGVPERFSGSRSGSDYSLTISSLESEDFADYYCLQYASYPWTFGGGTKLEMK
B4: S3A4 recombinant anti-UPK2 monoclonal antibody (murine-human chimeric) (antibody, V domains shown)
VH: EVKLKQSGAELVKPGASVKLSCKASGYTLTSYYIYWVKQRPGQGLEWIGGISPSNGNTYFTEKFKNMATLTVDKSSNTAYMQLSSLTSEDSAVYYCARNYDYDVGFAYWGQGTLVTVSS
VL: DVVMTQTPLSLPVSLGDQASISCRSSQSIVHSNGNTYLEWYLQKPGQSPKLLIYKVSNRFSGVPDRFSGSGSGTDFTLKISRVEAEDLGVYYCFQGSHVPFTFGSGTKLEIK
B5: S7F11 recombinant anti-UPK2 monoclonal antibody (murine-human chimeric) (antibody, V domains shown)
VH: EVQLKESGAELVRSGASVKLSCTASAFNIKDYYMNWMKQRPEQGLEWIGWIDPENGDTKYAPKFQGKATITADTSSSTAYLQLTSLTSEDSAVFYCNVNYKYDWFAYWGQGTLVTVSA
VL: DVVMTQSQKFMSTSVGDRVSVTCKASQNVGTNVAWYQQKPGQSPRALIYSASYRYSGVPDRFTGSGSGTDFTLTISNVQSEDLAEYFCQQYNTYPWTFGGGTKLEIK

Each binder was assayed against T1, UPK2 antigen on 293T cells (6600, …) (assay: flow cytometry, histogram of 293T-6600 cells (293T transiently transfected with plasmid 6600, UPK2-noflag) stained with the antibody; goat-anti-human FITC secondary per paragraph 179).

Compared with B1, B2 is lower in “percent of cells in the positive gate” value: 0.19% for the first, 0.06% for the second.

Going from B3 to B4, the “percent of cells in the positive gate” value rises from 0.07% to 27%.

With B5 the “percent of cells in the positive gate” value was 0.48%.
